Experiment: label from the status in PepcDB records

## MSLIPKFRAWDTYEKEMLENVTPLFDDSNSMIAIITDFQIKGSPGTSEIEIGSYDTTFNWDEFPYVIMQSTGLKDKNGVEIFEGDILVYDAPKKYAHRRSMHEIAYADGRFFWEFLDLVFCQSNILYRDGYLVIGNIHENPELLEGNEGHHHHHH
  protein production: not failed

## MEYYQPVEINVLSAQDLNSINLLFRPTVYVSVSVTRGSRDKQVTPAAAWDKKFLRWNYRMKFYIEDDKVRRNESVFVFQIKCKRFFGSDQVVGKLFIPGCRLGVWGNIRHEPSAPCEDDIYA
  protein production: failed

## MGGLGYGCHPVPAVLDDEGNQLPDPGRRRTVIHDGSAADRQPGVQHRALADGRRQLARHRLLPGRARRVIAGQGCQRARPRSGEGRRRGVHGDLRHRIRHGPASLPDRGGRGRRAEALLVAEEHAMSRASRHRILAAMLSACLLSLLGGCTPLTVLAVLGGCKDGGSNGSSGGVTGSVTTGEVRDGMTIAQTKAWFNGSDGPDNVCQAYPDGQCTWWACMRGHKIGLDVGSYWGNGGDWAASATAAGWKTTRTDPVAGSIVSYPPGVADADTLYGHVAVVEAVDRTAGTVTISEMNGRGGLGIVNHRTHRINVGAVYILPNGSVSTNGSAGTDSTSSGSESSDSSSSSDSSSSSDPVEAAWTCSSSDSGSTDVVVDYDGDGTHATPEQARAIARKMIASYKDWGDGDYDALVWLWNKESGWQWNATNPSSGAYGIPQALPASKLASAGDDWKDNAATQIKWGLNYIAGRYGSPSAAKTFWLAHNWY
  protein production: failed

## MGLSSLPGPSEGMLCVILVNTALSISIVKGIVRSFLGIVGISLSPSSSSPSSVTVSSENSSTSESFDFRVCQPESYLEEFRNRTPTLRFESLCRCKKQADNECSVCLSKFQGDSEINKLKCGHLFHKTCLEKWIDYWNITCPLCRTPLVVVPEDHQLSSNVW
  protein production: failed

## MDFLGILCLLILATTLAGHFAHRAGIPAVIGEILVGVILGPALLNWVHLTTLVQTFSDIGVVVLMFIGGLESNLALLRKYLRPAIIVAIIGVIFPVVIMGLASRFFQFSWFESLFIGVIFSATSVSISVEVLKEFKVLDTKEGATILGAAVADDIIGVILLSIMIAMMGGQSGVAQTNLGIVLLEQVGFFIGVFIVIKWVAPYLMRLSDHLLMAASPTIMAIIICLALAWLAELVGLSGAIGAFFAGVAIAQTDYQHVVDVSIEPVGYTTFIPLFFVSVGLNMTFKGVWQSLPFIVVMTVLGVLTKLWGCGLGAKLNGFSRHSNYLVGAGMISRGEMALITAQIGFSAHLLSNDYYSDIILVIIVVTMIAPFVLKNAIHRAGQVTATHSIIEEH
  protein production: failed

## MVESKTKFEEIRKWVSDHKLRTVGCLWLSGITGSIAYNWSQPAMKTSVKIIHARLHAQALTLAALAGAAVVEYYDHKTEATNRYPKFLPPENLSHKD
  protein production: failed

## MLLDGTPFARRRVTSLTSANRKGAARRTCPEAAGGPMASSAGLALCAQTLVVRGGSRFLAFSTTGSDDDCVFTYDCSTAEKKATPEDKGEDGQPADTGSDSILASTFSKSGRYFALTDDSKRLILFRTKPWQCLSARTIACQCVYFCVLDGIKCVLFRNSTRQVLSQACIEPAHCCGAVVSGSLCPLVIXAVSPDDQFVLTADRDEKIRVSWAAAPHSIESFCLGHTEFVSRILVVPSHPELLLSSSGDGTLRLWEYRSGRQLQCCDLAGLQEPGEQPGHKGLAASRIAFWGQESYVVLLCECVPVVFVFQLDASRQQLVFRQRLTFPHRVWDVVFEEARGLWVLQDCRDAPLVLWRPVGGEWQAAPDGAVSPRLCSHLRESWAMLEGSVGTDDSFRSLYKATFDNMTSYLKKKEERLQQQLKKKRQRSPFPGSPEQTKKACPGQSALSC
  protein production: failed

## MSLSAPRITRVETAAIRAVGPSVLVRVWAGDEHGLGECYPSAPAAGIHHIVMNMEEQLLGEDPRDVERLYEKMRRWNIFTGGQAGAVITALSGIETALWDLAGKLQGVPVYRLLGGAFRRRVRLYADCNAGTVDAAAHHIEGGLFVEGSNEEYIAVAREAVERGFDAIKLDVDDITGPLHRDFWNGAISPREHEAMVARVAAVREAVGPEVEVAIDMHGRFDIPSSIRFARAMEPFGLLWLEEPTPPENLDALAEVRRSTSTPICAGENVYTRFDFRELFAKRAVDYVMPDVAKCGGLAEAKRIANLAELDYIPFAPHNVSSPVGTVAAAHVCAAVSNFAVLEWHAIDMPHWEDFVRYPGGPVIREGHIELTEEPGLGLELDEEAAFEHRHEKGGVPFFGRTEGHHHHHH
  protein production: not failed

## MIAMDIREIGLRLVGEAIKAADPYRAVLNAVKVSDDKIIVQGKEFEIKGKVYVIALGKAACEMARAIEDILDVEDGVAVTKYGYGKELKRIKVIEAGHPIPDEKSILGAKEALSILNRARENDIVFILISGGGSALFELPEEGISLEDLKLTTDLLLKSGAKIHEINTVRKHISKVKGGKLAKMIKGTGIVLIISDVVGDNLEAIASGPTVKDPTTFEDAKRILELYDIWEKVPESVRLHIERGLRGEVEETLKEDLPNVHNFLIASNSISCEAIAREAQRLGFKAYIMTTTLEGEAKDAGLFIGSIVQEIAERGRPFEPPVVLVFGGETTVTIEGKGGKGGPNQEIALSATRKISDLEALIVAFDTDGTDGPTDAAGGIVDGTTYKKLREKGIDVEKVLKEHNSYEALKKVGGLLFTGPTGTNVNSIVIAIVTSKRGRT
  protein production: not failed

## MQDRCPHQDHRSIPTIMPDLEPDTVSALEAPEFAPAQFVRWFREVAPYVHAFRGKTFVVAFGGELVQAGALNVLVQDLSLLSALGIHLVLVHGSRPQVNEQLRLKGYTQQFGRGLAPTDPAALECAKEAAGEIRLDIEAAFSQGLPNTPMSHSHIRVLSGNFVTARPTGVVDGIDYKHTGQVRKIDVDALKFAIEQGSVVLLSPLGFSPTGDAFNLAMEDLATSVAVALRAEKLIFLSGEPGVLDGNGAVDTELARVDADALLARGELDEDTTYFLQHASLAVKRGVARAHLVPYALDGSVLLEIFTHDGVGTMVVEDTLDDLRAATLDDVGAILSLIEPLETDGTLVPRPRSAIERDVERFTVLEHDGVIYGCAALYPFPEDQMAEMACLIVHPEWQGSGEGEILLRHMESRARASGARRLFVLTTRTSHWFMKRGFVRGGVADLPRDKQNNYNRSRNSLVFIKKL
  protein production: failed

## MSSEMEPLLLAWSYFRRRKFQLCADLCTQMLEKSPYDQAAWILKARALTEMVYIDEIDVDQEGIAEMMLDENAIAQVPRPGTSLKLPGTNQTGGPSQAVRPITQAGRPITGFLRPSTQSGRPGTMEQAIRTPRTAYTARPITSSSGRFVRLGTASMLTSPDGPFINLSRLNLTKYSQKPKLAKALFEYIFHHENDVKTIHLEDVVLHLGIYPFLLRNKNHIEKNALDLAALSTEHSQYKDWWWKVQIGKCYYRLGMYREAEKQFKSALKQQEMVDTFLYLAKVYVSLDQPVTALNLFKQGLDKFPGEVTLLCGIARIYEEMNNMSSAAEYYKEVLKQDNTHVEAIACIGSNHFYSDQPEIALRFYRRLLQMGIYNGQLFNNLGLCCFYAQQYDMTLTSFERALSLAENEEEAADVWYNLGHVAVGIGDTNLAHQCFRLALVNNNNHAEAYNNLAVLEMRKGHVEQARALLQTASSLAPHMYEPHFNFATISDKIGDLQRSYVAAQKSEAAFPDHVDTQHLIKQLRQHFAML
  protein production: failed

## MDFKTVMQELEALGKERTKKIYISNGAHEPVFGVATGAMKPIAKKIKLNQELAEELYATGNYDAMYFAGIIADPKAMSESDFDRWIDGAYFYMLSDYVVAVTLSESNIAQDVADKWIASGDELKMSAGWSCYCWLLGNRKDNAFSESKISDMLEMVKDTIHHSPERTKSAMNNFLNTVAISYVPLHEKAVEIAKEVGIVEVKRDNKKSSLLNASESIQKELDRGRLGFKRKYVRC
  protein production: not failed

## MRILSGMRPTGKLHIGHLVGALENWVKLQEEGNECFYFVADWHALTTHYDDVSKLKEYTRDLVRGFLACGIDPEKSVIFVQSGVKEHAELALLFSMIVSVSRLERVPTYKEIKSELNYKDLSTAGFLIYPVLQAADILIYKAEGVPVGEDQVYHIELTREIARRFNYLYDEVFPEPEAILSRVPKLPGTDGRKMSKSYGNIINLEISEKELEQTILRMMTDPARVRRSDPGNPENCPVWKYHQAFDISEEESKWVWEGCTTASIGCVDCKKLLLKNMKRKLAPIWENFRKIDEDPHYVDDVIMEGTKKAREVAAKTMEEVRRAMNLMF
  protein production: not failed

## MRAMVSRLNSAVSRLFLFAFVAVMPTLVQAQSVNEGQSVRALTTDSSGALLVLRQSGLFALDSQNTTEIPLPPSDSGAQPRSMAKGGDESLYLAGPGLGIWRYDEASKRWQSLNDTLPDLGVTAIAAHATQPDTLYAYLGDGGMFRSRDDGAEWVKVDNGPREPVQAFLHSDMPGSMESGWLFAGTTRGVARSMDCFCFWGDAGELRGTVSAIDYDPWAPENVYAVIEGELHRSSDGGETWAGLEIPQAVTALTFSPTERLVVGTENGELLSQNASGEWVPVYE
  protein production: failed

— a protein production outcome set (Wang et al. 2014)
